Results published in publication PMC9098913, “In vitro reconstitution of Escherichia coli divisome activation” (Nature Communications, 2022).
Where two headings read alike, the source gives them in different places.

Assays:
[1] = Membrane off-binding rate (koff) of FtsA from FRAP
From the text: We could also use the data from these bleaching experiments to quantify the membrane-binding kinetics and diffusion of membrane-bound proteins by analysing the change of the fluorescence profile during recovery.
Equimolar concentrations of Cy3- and Cy5-labelled FtsA, supplemented with 20% unlabelled FtsA were used to study FRET and FRAP. Five pre-bleach frames were acquired, followed by acceptor photobleaching of a rectangular ROI with 40% 641 nm laser power and a dwell size of 1 µs/pixel, 75% overlapping lines. The recovery of the signal or the increase in donor intensity were measured with either two frames or one frame per second.
Bleaching the acceptor dye leads to an increase in the donor intensity, which can be used to quantify the Foerster Resonance energy transfer (FRET)[48]. FRET efficiency was quantified with E%=Ipost/Ipost+Ipre⋅100 , where Ipost is the intensity of the […] and Ipre is the […]. […] To extract the contribution of both processes, we adjusted a routine recently published by Gerganova et al.[33]. In short, the code provides the contribution of both modes of recovery by analysing the shape of the fluorescence recovery profile. […] Contribution of diffusion leads to a change of the slope of the outer borders of the bleached region (S4h right). Thus, by measuring the change of the slope of the border recovery, diffusion and simple on/off binding can be distinguished. We developed “FRAPdiff”, a graphical user interface, which uses the original fit routine by David Rutkowski. It can be used directly on.tiff movies with annotated bleach regions as ImageJ ROIs. In addition, we added optional bleach correction, user selectable projection axis (x or y), and optional mirroring of the recovery profiles, if bleaching was not symmetric. The original fit routine for estimating the recovery and diffusion dynamics can be found at https://github.com/davidmrutkowski/1DReflectingDiffusion. FRAPdiff is available at 10.5281/zenodo.6400639[49] under the GPLv3 open-source license.

FtsZ = conditions: His-tagged FtsA
Method: Co-treadmilling of FtsA with FtsZ relies on the dynamic exchange of FtsA on the membrane. […] To investigate the respective contributions of membrane binding kinetics and FtsA self-interaction on the colocalization dynamics with FtsZ, we wanted to create variants of the two FtsA proteins that are permanently attached to the membrane. […] Accordingly, in these experiments the proteins only differ in their tendency to form oligomers.
To study colocalization of His-tagged variants of FtsA, 0.5–1 µM of Cy5 labelled His-tagged FtsAs were added to the chamber, incubated for 20 min and washed 6x with reaction buffer. […] To control the density of membrane-bound FtsA, SUVs without and with Tris-NTA lipids were mixed to obtain the respective Tris-NTA concentrations. To perform FRET/FRAP experiments, equimolar concentrations of Cy3 and Cy5 labelled His-tagged FtsAs (total 0.5–1 µM) or His-SUMO-Cys were added to a chamber and treated as above. […] FRAP experiments were performed as described before.
Time-lapse videos were first intensity-corrected and contrast-enhanced to avoid bleaching effects and simplify subsequent analysis. To remove contributions of X–Y drift, the videos were processed with the Linear Stack Alignment with SIFT plugin. Proper alignment was checked with the 3TP align plugin (J. A. Parker; Beth Israel Deaconess Medical Center, Boston). Subsequently, regions of interest (ROIs) in the center of the stacks were chosen for colocalization analysis. The Pearson’s correlation coefficient (PCC) was quantified with the Image CorrelationJ 1o plugin. To extract information about the relative ratio of FtsZ/FtsA molecules (slope of linear regression), we also used the Image CorrelationJ 1o plugin. As an output, the plugin provides a scatterplot of FtsZ vs FtsA intensities, to which we fitted a linear slope y=k⋅x+d , where k is the slope and d the offset. The slope was used as an estimate for the ratio of FtsA molecules below FtsZ filaments.

B1: FtsA R286W (protein)
chain: MIKATDRKLVVGLEIGTAKVAALVGEVLPDGMVNIIGVGSCPSRGMDKGGVNDLESVVKCVQRAIDQAELMADCQISSVYLALSGKHISCQNEIGMVPISEEEVTQEDVENVVHTAKSVRVRDEHRVLHVIPQEYAIDYQEGIKNPVGLSGVRMQAKVHLITCHNDMAKNIVKAVERCGLKVDQLIFAGLASSYSVLTEDERELGVCVVDIGGGTMDIAVYTGGALRHTKVIPYAGNVVTSDIAYAFGTPPSDAEAIKVRHGCALGSIVGKDESVEVPSVGGRPPWSLQRQTLAEVIEPRYTELLNLVNEEILQLQEKLRQQGVKHHLAAGIVLTGGAAQIEGLAACAQRVFHTQVRIGAPLNITGLTDYAQEPYYSTAVGLLHYGKESHLNGEAEVEKRVTASVGSWIKRLNSWLRKEF
modifications: Cy3 or Cy5 at the N-terminus in the labelled form (labelled CLEPTGG peptide conjugated to the 5xGly tag by sortagging); unlabelled protein also used; left off: TwinStrep-SUMO, N-terminal, cleaved | 5x
With B1 the Off binding rate ([1]; 0.4µM FtsA alone, replicate Exp.7) was 2.26E-01, the Off binding rate ([1]; 0.4µM FtsA alone, replicate Exp.8) was 2.05E-01 and the Off binding rate ([1]; 0.4µM FtsA alone, replicate Exp.9) was 2.55E-01. For the same molecule, the “membrane exchange (off-rate)” value ([1]; 0.4 µM FtsA, p-value 6.73 × 10^−6) was 0.37 ± 0.24 s⁻¹, the Off binding rate ([1]; 0.4µM, + FtsN&Z, Mean, n=9) was 0.1008 and the Off binding rate ([1]; 0.4µM, + FtsN&Z, replicate Exp.1) was 3.83E-02. It also gave an Off binding rate ([1]; 0.4µM, + FtsN&Z, replicate Exp.2) of 7.71E-02, an Off binding rate ([1]; 0.4µM, + FtsN&Z, replicate Exp.3) of 4.63E-02 and an Off binding rate ([1]; 0.4µM, + FtsN&Z, replicate Exp.4) of 2.42E-01. It also gave an Off binding rate ([1]; 0.4µM, + FtsN&Z, replicate Exp.5) of 1.75E-01, an Off binding rate ([1]; 0.4µM, + FtsN&Z, replicate Exp.6) of 5.12E-02 and an Off binding rate ([1]; 0.4µM, + FtsN&Z, replicate Exp.7) of 5.06E-02. For the same molecule, the Off binding rate ([1]; 0.4µM, + FtsN&Z, replicate Exp.8) was 1.16E-01, the Off binding rate ([1]; 0.4µM, + FtsN&Z, replicate Exp.9) was 1.11E-01 and the Off binding rate ([1]; 0.4µM, + FtsN, Mean, n=6) was 0.1799. The Off binding rate ([1]; 0.4µM, + FtsN, replicate Exp.1) was 1.51E-01, the Off binding rate ([1]; 0.4µM, + FtsN, replicate Exp.2) was 4.77E-02 and the Off binding rate ([1]; 0.4µM, + FtsN, replicate Exp.3) was 2.92E-01. For the same molecule, the Off binding rate ([1]; 0.4µM, + FtsN, replicate Exp.4) was 2.85E-01, the Off binding rate ([1]; 0.4µM, + FtsN, replicate Exp.5) was 1.01E-01 and the Off binding rate ([1]; 0.4µM, + FtsN, replicate Exp.6) was 2.02E-01. The Off binding rate ([1]; 0.4µM, + FtsZ, Mean, n=8) was 0.1794, the Off binding rate ([1]; 0.4µM, + FtsZ, replicate Exp.1) was 1.34E-01 and the Off binding rate ([1]; 0.4µM, + FtsZ, replicate Exp.2) was 2.29E-01. It also gave an Off binding rate ([1]; 0.4µM, + FtsZ, replicate Exp.3) of 1.49E-01, an Off binding rate ([1]; 0.4µM, + FtsZ, replicate Exp.4) of 2.39E-01 and an Off binding rate ([1]; 0.4µM, + FtsZ, replicate Exp.5) of 1.49E-01. It also gave an Off binding rate ([1]; 0.4µM, + FtsZ, replicate Exp.6) of 1.15E-01, an Off binding rate ([1]; 0.4µM, + FtsZ, replicate Exp.7) of 3.30E-01 and an Off binding rate ([1]; 0.4µM, + FtsZ, replicate Exp.8) of 8.97E-02. The “Off binding rate, mean” value ([1]; 0.8 µM FtsA + FtsN&Z) was 0.0945 s, the “Off binding rate, mean” value ([1]; 0.8 µM FtsA + FtsN) was 0.188 s and the “Off binding rate, mean” value ([1]; 0.8 µM FtsA + FtsZ) was 0.161 s. The Off binding rate ([1]; 0.8µM FtsA alone, Mean, n=8) was 0.3865, the “Off binding rate, mean” value ([1]; 0.8 µM FtsA alone) was 0.386 s and the Off binding rate ([1]; 0.8µM FtsA alone, replicate Exp.1) was 6.04E-01. For the same molecule, the Off binding rate ([1]; 0.8µM FtsA alone, replicate Exp.2) was 6.73E-01, the Off binding rate ([1]; 0.8µM FtsA alone, replicate Exp.3) was 7.27E-01 and the Off binding rate ([1]; 0.8µM FtsA alone, replicate Exp.4) was 1.48E-01. It also gave an Off binding rate ([1]; 0.8µM FtsA alone, replicate Exp.5) of 5.66E-01, an Off binding rate ([1]; 0.8µM FtsA alone, replicate Exp.6) of 9.49E-02 and an Off binding rate ([1]; 0.8µM FtsA alone, replicate Exp.7) of 1.46E-01. The Off binding rate ([1]; 0.8µM FtsA alone, replicate Exp.8) was 1.33E-01, the Off binding rate ([1]; 0.8µM, + FtsN&Z, Mean, n=4) was 0.0945 and the Off binding rate ([1]; 0.8µM, + FtsN&Z, replicate Exp.1) was 3.85E-02. For the same molecule, the Off binding rate ([1]; 0.8µM, + FtsN&Z, replicate Exp.2) was 2.22E-01, the Off binding rate ([1]; 0.8µM, + FtsN&Z, replicate Exp.3) was 6.03E-02 and the Off binding rate ([1]; 0.8µM, + FtsN&Z, replicate Exp.4) was 5.77E-02. It also gave an Off binding rate ([1]; 0.8µM, + FtsN, Mean, n=3) of 0.1881, an Off binding rate ([1]; 0.8µM, + FtsN, replicate Exp.1) of 7.35E-02 and an Off binding rate ([1]; 0.8µM, + FtsN, replicate Exp.2) of 3.72E-01. The Off binding rate ([1]; 0.8µM, + FtsN, replicate Exp.3) was 1.19E-01, the Off binding rate ([1]; 0.8µM, + FtsZ, Mean, n=8) was 0.1609 and the Off binding rate ([1]; 0.8µM, + FtsZ, replicate Exp.1) was 2.88E-01. It also gave an Off binding rate ([1]; 0.8µM, + FtsZ, replicate Exp.2) of 1.14E-01, an Off binding rate ([1]; 0.8µM, + FtsZ, replicate Exp.3) of 2.71E-01 and an Off binding rate ([1]; 0.8µM, + FtsZ, replicate Exp.4) of 1.12E-01. It also gave an Off binding rate ([1]; 0.8µM, + FtsZ, replicate Exp.5) of 1.44E-01, an Off binding rate ([1]; 0.8µM, + FtsZ, replicate Exp.6) of 1.39E-01 and an Off binding rate ([1]; 0.8µM, + FtsZ, replicate Exp.7) of 1.37E-01. The Off binding rate ([1]; 0.8µM, + FtsZ, replicate Exp.8) was 8.23E-02, the Off binding rate ([1]; Fig. S3i/S3j, 0.10 µM FtsA, summary value) was 0.326 s⁻¹ and the Off binding rate ([1]; Fig. S3i/S3j, 0.20 µM FtsA, summary value) was 0.251 s⁻¹. For the same molecule, the Off binding rate ([1]; Fig. S3i/S3j, 0.40 µM FtsA, summary value) was 0.374 s⁻¹, the Off binding rate ([1]; Fig. S3i/S3j, 0.80 µM FtsA, summary value) was 0.386 s⁻¹ and the membrane off-rate ([1]; in the presence of FtsZ) was “around 0.20 s^−1”. The PCC (FtsZ; 0.60% Tris NTA, Exp. 2 (statistical analysis)) was 0.65, the “PCC, Mean” value (FtsZ; 0.60% Tris NTA, n = 2 (WT), 3 (R286W), sd 0.07, 0.08, p-value 0.39) was 0.56 and the PCC (FtsZ; 0.80% Tris NTA, Exp. 1 (statistical analysis)) was 0.79. For the same molecule, the PCC (FtsZ; 0.80% Tris NTA, Exp. 2 (statistical analysis)) was 0.63, the PCC (FtsZ; 0.80% Tris NTA, Exp. 3 (statistical analysis)) was 0.69 and the “PCC, Mean” value (FtsZ; 0.80% Tris NTA, n = 3, 3, sd 0.0141 (WT), 0.0648 (R286W), p-value 0.61) was 0.70. It also gave a PCC (FtsZ; 1.00% Tris NTA, Exp. 1 (statistical analysis)) of 0.78, a PCC (FtsZ; 1.00% Tris NTA, Exp. 2 (statistical analysis)) of 0.71 and a PCC (FtsZ; 1.00% Tris NTA, Exp. 3 (statistical analysis)) of 0.72. For the same molecule, the “PCC, Mean” value (FtsZ; 1.00% Tris NTA, n = 4 (WT), 3 (R286W), sd 0.08, 0.0316, p-value 6.25E-02) was 0.73, the PCC (FtsZ; 2.00% Tris NTA, Exp. 1 (statistical analysis)) was 0.63 and the PCC (FtsZ; 2.00% Tris NTA, Exp. 2 (statistical analysis)) was 0.53. The PCC (FtsZ; 2.00% Tris NTA, Exp. 3 (statistical analysis)) was 0.55, the “PCC, Mean” value (FtsZ; 2.00% Tris NTA, n = 3, 3, sd 0.0143 (WT), 0.04 (R286W), p-value 1.59E-04) was 0.57 and the PCC (FtsZ; […] Tris NTA, Exp. 1 (statistical analysis)) was 0.60. The PCC (FtsZ; […] Tris NTA, Exp. 2 (statistical analysis)) was 0.62, the PCC (FtsZ; […] Tris NTA, Exp. 3 (statistical analysis)) was 0.65 and the “PCC, Mean” value (FtsZ; […] Tris NTA, n = 3, 3, sd 0.06 (WT), 0.02 (R286W), p-value 3.86E-04) was 0.63.
